Experimental data from patent US20140235701, “NGF APTAMER AND APPLICATION THEREOF” (RIBOMIC INC., published 2014).

How the values were obtained:
Conditions in all cases: tags: R&D Systems; chain copies: 2
[1] = target: T1, NGF (nerve growth factor) (Homo sapiens, UniProt P01138 P01138:122-241); assay: cell_activity; neurite; TF-1 >0.1
[2] = target: T1, NGF (nerve growth factor); assay: cell_activity; neurite; TF-1 <0.1
NT-4 (neurotrophin-4) [3] = target: T2, NT-4 (neurotrophin-4) (Homo sapiens, UniProt P34130 P34130:81-210); assay: cell_activity; TF-1
T2 sequence: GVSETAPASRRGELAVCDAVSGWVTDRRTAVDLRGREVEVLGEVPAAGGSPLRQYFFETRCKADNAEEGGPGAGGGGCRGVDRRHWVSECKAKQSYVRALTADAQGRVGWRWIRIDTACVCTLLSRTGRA
Excerpt: Using TF-1 cells, whether NGF aptamer inhibits BDNF, NT-3, NT-4 was examined. Human receptor genes (TrkB, TrkC, p75) for respective neurotrophic factors were introduced into TF-1 cells (ATCC Number: CRL-2003), which is a human erythroleukemic cell line, by using a retrovirus vector to give cells that highly express these receptors stably. TF-1 cells introduced with TrkB and p75 were used for the evaluation of inhibitory activity against BDNF, TF-1 cells introduced with TrkC and p75 were used for the evaluation against NT-3, and TF-1 cells introduced with TrkB alone were used for the evaluation against NT-4. These cells were suspended in an RPMI-1640 medium containing 20% fetal bovine serum, and seeded in a white 96 well flat-bottom plate at 1000 cells (50 μL) per well. Thereto was added a mixed solution 50 μL of human BDNF (final concentration 0.074 nM) or NT-3 (final concentration 0.074 nM) or NT-4 (final concentration 0.071 nM) and the aptamer (final concentration 1 μM-0.01 nM), which had been pre-reacted at room temperature for 30 min in a serum-free RPMI-1640 medium, 3 days later, 100 μL of CellTiter-Glo reagent for CellTiter-Glo Luminescent Cell Viability Assay (manufactured by Promega) was added to each well, chemiluminescence was measured by a microplate reader. With the amount of luminescence per well obtained by the addition of BDNF or NT-3 or NT-4 alone and culture of the cells for 3 days as inhibitory activity 0%, and that of the well obtained by culture for 3 days without addition of BDNF or NT-3 or NT-4 as inhibitory activity 100%, the inhibitory activity of the aptamer was calculated from the amount of luminescence per well obtained by culturing with the addition of BDNF or NT-3 or NT-4 and the aptamer in mixture. When the inhibitory activity was 0 or below, ‘0%’ is indicated. The 50% inhibitory concentration (IC₅₀) was determined from the concentrations at two, above and below points sandwiching the 50% inhibitory activity. An IC₅₀ value indicated as “>X” means that the inhibitory activity was not more than 50% when the indicated concentration X was the maximum measured concentration. N.D. means not measured.

NT-3 (neurotrophin-3) = target: T3, NT-3 (neurotrophin-3) (Homo sapiens, UniProt P20783 P20783:139-257); assay: SPR; scarcely bound
T3 sequence: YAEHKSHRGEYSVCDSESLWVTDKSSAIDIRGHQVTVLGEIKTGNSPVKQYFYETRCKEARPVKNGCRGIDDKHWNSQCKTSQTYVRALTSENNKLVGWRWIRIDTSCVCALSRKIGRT
Description: (§1) The binding activity of these shortened forms to NGF and NT-3 was measured by the surface plasmon resonance method. For the measurement method, BIAcore2000 manufactured by BIAcore was used and CM5 reactive with amino group was used as a sensorchip, as shown in Example 1. The protein was immobilized in the same manner as in Example 1 by using ethyl-3-carbodiimide hydrochloride and N-hydroxysuccinimide. […] After protein immobilization, blocking with ethanolamine-HCl was performed. The amount of immobilized NGF and NT-3 was 3,000-4,000 RU and 3,000-5,000 RU, respectively. The aptamer for an analyte was prepared to 0.15 μM-0.5 μM. The running buffer and regeneration solution were the same as those in Example 1. NT-3 was immobilized on FC2, and NGF on FC3, and the final sensorgram was obtained by subtracting the results of FC1.
(§2) Then, the aptamers were subjected to shortening to 40 mer in the same manner as with consensus secondary structure 1. […] NT-4 was measured in the same manner as in NT-3.
(§3) The shortened sequences were measured for the binding to NGF, NT-3, NT-4 by the surface plasmon resonance method. The measurement was performed in the same manner as in Example 13.

NT-4 (neurotrophin-4) [4] = target: T2, NT-4 (neurotrophin-4); assay: SPR; scarcely bound
Description: as §1, §2, §3

[5] = target: T1, NGF (nerve growth factor); assay: cell_activity; neurite; TF-1 >1

T1 sequence (P01138 122-241, one chain of several): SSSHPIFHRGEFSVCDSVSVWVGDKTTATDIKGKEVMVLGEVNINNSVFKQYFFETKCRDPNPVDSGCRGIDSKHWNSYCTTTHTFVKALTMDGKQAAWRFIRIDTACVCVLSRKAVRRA

GGGUCCUGGAUAAGAGUUUCCGUCUCGUAUCCUGUUACCC (ssRNA, as 82(1) except 2'-OMe U33) [SEQ ID NO: 82(14)]
IC50 [1]: 0.294 nM

GGGUCCUGGAUAAGAGUUUCCGUCUCGUAUCCUGUUACCC (ssRNA, as 82(25) except dU19) [SEQ ID NO: 82(39)]
IC50 [1]: 0.256 nM

GGGUCCUGGAUAAGAGUTUCCGUCUCGUAUCCUGUUACCC (ssRNA, as 82(1) except dT18) [SEQ ID NO: 157]
IC50 [1]: 0.299 nM

GGGUCCUGGAUAAGAGUUUCCGUCUCGUAUCCUGUUACCC (ssRNA, as 82(25) except dU18) [SEQ ID NO: 82(38)]
IC50 [1]: 0.295 nM

GGGUCCUGGAUAAGAGUUUCCGUCUCGUAUCCUGUTACCC (ssRNA, as 82(1) except dT36) [SEQ ID NO: 159]
IC50 [1]: 0.264 nM

GGGUCCUGGAUAAGAGUUUCCGUCUCGUAUCCUGUUACCC (ssRNA, as 82(25) except 2'-OMe A12) [SEQ ID NO: 82(44)]
IC50 [1]: 0.097 nM

GGGUCCUGGAUAAGAGUUUCCGUCUCGUAUCCUGUUACCC (ssRNA, as 82(1) except dC24) [SEQ ID NO: 82(31)]
IC50 [1]: 0.276 nM

GGGUCCUGGAUAAGAGUUUCCGUCUCGUAUCCUGUUACCC (ssRNA, as 82(25) except 2'-OMe A13) [SEQ ID NO: 82(43)]
IC50 [1]: 0.088 nM

GGGUCCUGGAUAAGAGUUUCCGUCUCGUAUCCUGUUACCC (ssRNA, as 82(1) except 2'-OMe U4,C6,U11,C20,C21,C26,U28,U30,C31,C32,U35,C38-40) [SEQ ID NO: 82(19)]
IC50 [1]: 0.291 nM

GGGUCCUGGAUAAGAGUUUCCGUCUCGUAUCCUGUUACCC (ssRNA, as 82(1) except dC20) [SEQ ID NO: 82(30)]
IC50 [1]: 0.244 nM

GGGUCCUGUGGAAGAGUUUCCGUCUCGUCCACUGUUACCC (ssRNA, 2'-OMe G1-3,C38-40; other C/U 2'-F, G 2'-OH, dA; 5',3' idT) [SEQ ID NO: 89(1)]
IC50 [2]: 0.246 nM

GGGUCCUGUGGAAGAGUUUCCGUCUCGUCCACUGUUACCC (ssRNA, as 89(2) plus 2'-OMe G10,G11) [SEQ ID NO: 89(3)]
IC50 [2]: 0.122 nM

B1: SEQ ID NO: 89(2) (ssRNA)
RNA: GGGUCCUGUGGAAGAGUUUCCGUCUCGUCCACUGUUACCC
modifications: 2'-OMe G1-3,C6,G14,G16,C21,G22,U23,C26,G27,U28,C32,U35,C38-40; other C/U 2'-F, G 2'-OH, dA; 5',3' idT
IC50 [2]: 0.103 nM

GGGUCCUGUGGAAGAGUUUCCGUCUCGUCCACUGUUACCC (ssRNA, as 89(2) plus 2'-OMe U9,G10,G11,C29,C30) [SEQ ID NO: 89(4)]
IC50 (NT-4 (neurotrophin-4) [3]): 271 nM
IC50 [2]: < 0.1 nM

GGGUCCUGCUGCGUAGUUUCCGUCUGCGUGGUUGUUACCC (ssRNA, 2'-F C/U, dA, 2'-OH G) [SEQ ID NO: 103]
binding result (NT-3 (neurotrophin-3)): no binding
binding result (NT-4 (neurotrophin-4) [4]): no binding
IC50 [5]: 0.766 nM

GGGUCCUGCCGCGUAGUUUCCGUCUGCGUGGCUGUUACCC (ssRNA, 2'-F C/U, dA, 2'-OH G) [SEQ ID NO: 110]
binding result (NT-3 (neurotrophin-3)): no binding
binding result (NT-4 (neurotrophin-4) [4]): no binding
IC50 [5]: 0.999 nM

GGGUCCUGCUGCGUAGUUUCCGUCUGCGUAGCUGUUACCC (ssRNA, 2'-F C/U, dA, 2'-OH G) [SEQ ID NO: 106]
binding result (NT-3 (neurotrophin-3)): no binding
binding result (NT-4 (neurotrophin-4) [4]): no binding
IC50 [5]: 0.77 nM

GGGUCCUGUUGCGUAGUUUCCGUCUGCGUGACUGUUACCC (ssRNA, 2'-F C/U, dA, 2'-OH G) [SEQ ID NO: 108]
binding result (NT-3 (neurotrophin-3)): no binding
binding result (NT-4 (neurotrophin-4) [4]): no binding
IC50 [5]: 0.403 nM

GGGUCCUGCUGUGUAGUUUCCGUCUGCAUGGUUGUUACCC (ssRNA, 2'-F C/U, dA, 2'-OH G) [SEQ ID NO: 113]
binding result (NT-3 (neurotrophin-3)): no binding
binding result (NT-4 (neurotrophin-4) [4]): no binding
IC50 [5]: 0.96 nM

GGGUCCUGCUGCGUAGUUUCCUUCUGCGUGGCUGUUACCC (ssRNA, 2'-F C/U, dA, 2'-OH G) [SEQ ID NO: 109]
binding result (NT-3 (neurotrophin-3)): no binding
binding result (NT-4 (neurotrophin-4) [4]): no binding
IC50 [5]: 0.687 nM

GGGUCCUGCUGCGAAGUUUCCGUCUUCGUGGCUGUUACCC (ssRNA, 2'-F C/U, dA, 2'-OH G) [SEQ ID NO: 107]
binding result (NT-3 (neurotrophin-3)): no binding
binding result (NT-4 (neurotrophin-4) [4]): no binding
IC50 [5]: 0.967 nM

GGGUCCUGAUGUCAAGUUUCCGUCUUGAUGUCUGUUACCC (ssRNA, 2'-F C/U, dA, 2'-OH G) [SEQ ID NO: 104]
binding result (NT-3 (neurotrophin-3)): no binding
binding result (NT-4 (neurotrophin-4) [4]): no binding
IC50 [5]: 0.682 nM

GGGUCCUGUUGCUAAGUUUCCGUCUUAGUGACUGUUACCC (ssRNA, 2'-F C/U, dA, 2'-OH G) [SEQ ID NO: 105]
binding result (NT-3 (neurotrophin-3)): no binding
binding result (NT-4 (neurotrophin-4) [4]): no binding
IC50 [5]: 0.444 nM

GGGUCCUGCUCAAGAGUUUCCGUCUCGUGGGCUGUUACCC (ssRNA, 2'-OMe G1-3,C38-40; other C/U 2'-F, G 2'-OH, dA; 5',3' idT) [SEQ ID NO: 87(1)]
IC50 (NT-4 (neurotrophin-4) [3]): < 100 nM
IC50 [2]: 0.173 nM

B2: SEQ ID NO: 87(2) (ssRNA)
RNA: GGGUCCUGCUCAAGAGUUUCCGUCUCGUGGGCUGUUACCC
modifications: 2'-OMe G1-3,U4,C6,G14,G16,C21,G22,U23,C26,G27,U28,C32,U35,C38-40; other C/U 2'-F, G 2'-OH, dA; 5',3' idT
IC50 [2]: 0.107 nM

GGGUCCUGUUCAAGAGUUUCCGUCUCGUGAACUGUUACCC (ssRNA, 2'-OMe G1-3,C38-40; other C/U 2'-F, G 2'-OH, dA; 5',3' idT) [SEQ ID NO: 88(2)]
IC50 [2]: 0.241 nM

GGGUCCUGCUCAAGAGUUUCCGUCUCGUGGGCUGUUACCC (ssRNA, as 87(2) plus 2'-OMe C9,U10,C11,G29-31) [SEQ ID NO: 87(4)]
IC50 [2]: 0.113 nM

GGGUCCUGUUCAAGAGUUUCCGUCUCGUGAACUGUUACCC (ssRNA, 2'-OMe C38-40; other C/U 2'-F, G 2'-OH, dA; 5',3' idT) [SEQ ID NO: 88(1)]
IC50 (NT-4 (neurotrophin-4) [3]): < 100 nM
IC50 [2]: 0.241 nM

GGGUCCUGUUCAAGAGUUUCCGUCUCGUGAACUGUUACCC (ssRNA, as 88(3) plus 2'-OMe U9,U10,C11,G29) [SEQ ID NO: 88(4)]
IC50 (NT-4 (neurotrophin-4) [3]): 300 nM
IC50 [2]: 0.111 nM

GGGUCCUGCUCAAGAGUUUCCGUCUCGUGGGCUGUUACCC (ssRNA, as 87(2) plus 2'-OMe G29-31) [SEQ ID NO: 87(3)]
IC50 [2]: 0.118 nM

B3: SEQ ID NO: 88(3) (ssRNA)
RNA: GGGUCCUGUUCAAGAGUUUCCGUCUCGUGAACUGUUACCC
modifications: 2'-OMe G1-3,U4,C6,G14,G16,C21,G22,U23,C26,G27,U28,C32,U35,C38-40; other C/U 2'-F, G 2'-OH, dA; 5',3' idT
IC50 [2]: 0.106 nM
